This note sets out measurements from patent US20120289454.

The test system of data set [1] is GGHYrFK-amide (synthetic). The data set is described as follows: cleavage_in_vitro. The settings on record: Cu complex; KM 0.85 µM; turnover number 32; 1 mM ascorbate, 1 mM H2O2.
Data set [2] has as its system GGhyrfk-amide (synthetic). The following applies: Cu complex; Vmax 2.86 RFU/min.
Data set [3] concerns GGHYrFK-amide (synthetic).

In general, Kd refers to the concentration at which binding is half-saturated. In the case of “GGCAGAAAGCGUCUAGCCAUGGCGUUAGUAUGCC [HCV IRES SL IIb RNA]”, the activity in data set [1] is 0.53 min-1 (kcat). Further, the Kd was found to be 6.09 µM in data set [2] and 0.044 µM in data set [3].
